Source: the nanobody polyreactivity screen of Harvey et al. (2022)

experiment: yeast display, Sf9 membrane polyspecificity reagent, FACS + sequencing; frameworks hold sequencing errors
Procedure, shortened: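 Genes from sorted yeast were amplified by colony PCR, read by MiSeq 2 × 250 sequencing and filtered on CDR length. These cells carried a synthetic nanobody library in Saccharomyces cerevisiae BJ5465 and were sorted by FACS into low and high (top ~1%) gates on anti-HA and streptavidin fluorescence. Polyreactivity is labelled according to the gate of origin.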

Row | Sequence | polyreactivity (PSR sort gate)
1 | QVQLVESGGGLVQAGGSLRLSCAASGLTFQYYTMGWYRQAPGKERELVAAINWSGGSTYYADSVKGRFTISRDNAKNTVYLQMNSLKPVDTAVYYCNAVRFVEHDYWGQGTQVTVSS | high polyreactivity
2 | QVQLVESGGGLVQAGGSLRLSCAASGLTLPWYAMGWYRQAPGKERELVAAITWDGTRTYYADSVKGRFTISRDNAKNTVYLQMNSLKPEDTAVFYCNARRVRGTFYRSGVVGYSYWGHGTQVTVSS | high polyreactivity
3 | HDQLVESGGGFVQAGGSLRLSCAASGSIFRYNPMGWYRQAPGKEMELVAAISYGGGITRYADSVKGRFTISRDNAKNTVYLQMNSLKPEDTAVYYCNKAYVWRRMDYWGQGTQVTVSS | high polyreactivity
4 | QVQRVESGGGLVQAGGSLRLSCAASGRTSYYNTMGWYRQAPGKEMELVAAITGRGDSTYYADSVKGRFTISRDNAKNTVYLQMNSLKPEDTAVYYCADDELHLLYRVSKFVDYNHWGQGTQVTVSS | low polyreactivity
5 | QVQLVESGVGLVQAGGSLRLSCAASGNIFGYYAMGWYRQAPGKERELVAAISRSGTRTYYADSVKGRFTISRDNAKNTVYLQMNSLKPEDTAVYYCNAAKSPARFQVNNFDYWGQGTQVTVSS | high polyreactivity
6 | QVQLVESGGGLVQAGGSLRLSCAASGSIFPYNDMGWYRQAPGKERELVAAISDSAGSTYYADSVKGRFTISRDNAKNTVYLQMNSLKPEDTAVYYCAADSWDSQVVSYEYWGQGTQVTVSS | low polyreactivity
7 | QVQLVESGGGLVQAGGSLRLSCAASGSTFTYNAMGWYRQAPGKERELVAAIRSNGGSTYYADSVKGRFTISRDNAKNTVYLQMNSLKPEDTAVYYCAARLSVLGGYRGRNAWRFDHWGLGTQVTVSS | high polyreactivity
8 | QVQLVESGGGLVQAGGSLRLSCAASGGIFGYYAMGWYRQAPGKERELVAAINYSGGSTYYADSVKGRFTISRDNAKNTVYLQMNSLKPEDTAVYYCNAVVRDYTFRYYYWGQGTQVTVSS | low polyreactivity
9 | QVQLVESGGGLVQAGGSLRLSCAASGRTFRGNVMGWYRQATGKEREFVAAITRSGSNTYYADSVKGRFTISRDYAKTTVYLQMNSLKPEDTAVYDCAKSVLLGYKRHDSWGQGTQVTVSS | high polyreactivity
10 | QVQLVDSGGGVVQAGLSLRLSCAASGRTFPGYAIGWYRQAPGKEMELVASITSRGGITYYADSVKGRFTISRDNAKITVYLQLNSLKPEDSAVYYCATDFAVTKMEYWGQGSQVTVSS | low polyreactivity
11 | QVQLVESAGGLVQAGGSLRLSCAASGIIFSYYVMGWYRQAPGKERELVAAITTSGSRTYYADSVKGRFTISRDNAKITVYLQMNSLKPEVTSVYYCAAADAGLSVSSYRTYYYWGQGTQVTVSS | high polyreactivity
12 | QVQLVESGGGLVQAGGSLRLSCAASGIIFYRNAMGWYRQAPGKERELVAAISSRGGNTYYADSVKGRFTISRDNEKNTVYLQMNSLKPEDTAVYYCARDSYSLSRTYDSWGQGTQVTVSS | high polyreactivity
13 | QVQLGESGGGLVQAGGSLRLSCAASGITFTHYVMGLYRQAPGKERELVAAISTSGGRTYYADSVKGRFTISRDHAKNSVYLQMNSLKPEDTAVYYCAAVSRAPGLRYDYWGQGTQVTVSS | high polyreactivity
14 | QVQLVESGGGLVQAGGSLRLSCAASGLTFAKYAMGWYRQAPGKERELVAAIRSGDDTTYADSVKGRFTISRDNAMNTVYLQMISLKPEDTAVYYCAARPIHYPPYYYWGQGTQVTVSS | high polyreactivity
15 | QVQLVESGGGLVQAGGSLRLSCAASGRIFYRYAMGWYRQAPGKERELVAAISGRGGSTYYADSVKGRFTISRDNAKNTVYLQMNSLKPEDTAVYYCNALPVYRSLAYEVDYWGQGTQVTVSS | high polyreactivity
16 | QVQLVESGGGLVQAGGSLRLSCAASGRTFLQYGMGWYRQAPGKERELVAAITTSGGDTYYADSVKGRFTISRDNAKNTVYLQMNSQKPEDTAVYYCNAEPRYGTYDYWGQGTQVTVSA | low polyreactivity
17 | QVQLVESGGGLVQAGGSLRLSCAASGSTLDVYDMGWYRQAPGKEREFVATISFSVGSTDYADSVKGRFTISRDNAKNTVYLQMNSLKPEDTAVYYCAADVSEWSNQYFDSYLRMDYWGQGTQVTVSS | low polyreactivity
18 | QVQLVESGGGLVQAGGSLRLSCAASGSIFARNAMGWYRQAPGKERELVASITWSGASTYYADSVKGRFTISRDNAKNTVYLQMNSLKPADTSFYYSAATDQNLSLDYSSYEYRGQGTQVTVSS | low polyreactivity
19 | QVQLVESGGGLVQAGGSLRLSCAASGFIFAIYAMGWYRQAPGKERELVAAINSDGSTYYADSVKGRFTISRDNAKNTVYLQMNSLKPEDTAVYYCNAETAGHDMDYWGQGTQVTVSS | low polyreactivity
20 | QVQLVESGGGLVQAGGSLRLSCAASGRTFTYNAMGWYRQAPGKERELDAAISWNGGRTYYADSVKGRFTISRDNAKNTVYLQMNSLKPEDTAVYYCAARSPKDSYSIQRYYWGQGTQVTVSS | high polyreactivity
21 | QVQLVESGGGLVQAGGSLRLSCAASGSIFEPYAMGGYRQAPWTERELVAAIRVSGGSTYYADSVKGRFTISRDNAKNTVYLQMNSLKPEDTAVYYCGPDWWSRYYYWGQGTQVTVSS | high polyreactivity
22 | QVQLVESGGGLVQAGVSLRLICAASGSIFITNFMGWYRQAPGKERELVAVISASGGSTYYADSVKGRFTISRDNAKNNVYLQMNSMKPEDTAVYYCARTQRRYSYGQMGYWGQGTQVTVSS | high polyreactivity

Row | Sequence | polyreactivity (PSR sort gate)
23 | QVQLVESGGGLVQAGGSLRLSCAASGSTWWYDMGSYRQAPGKERELVASISSGDSTNYADSVKGRFTISRDNAKNTVYLQMNSLKPEDTAVYYCAADFNFGFVWGDDYDYWGQGTQVTVSS | low polyreactivity
24 | QVQLVESGGGLVQAGGSLRLSCAASGFIFWTYAMGWYRQAPGKERELVAAISSGGTITKYADSVKGRFTISRDNATNTVYLQMNSLKPEDTAVYYCNARENAVSLRDYWGQGTQVTVSS | high polyreactivity
25 | QVQLVESGGGLVQAGGSLRLSCAASGYIFVPYALGWYRQAPGKERELVASITGGGSTNYADSVKGRFTISRDNAKNTVYLQMNSLKPEDTAVYYCAAVLGGGEKGGRNRRFDSWGQGTQVTVSS | low polyreactivity
26 | QVQLVESGGGLVQAGGSLRLSCAASGRIFRHNTMGWYLQAPGKERELVAAIRYSGGRTYYADSVKGRFTLSRDTAKNTFYLQMNSLKPEDTAVYYCAATYFAAVYSSWYWFDYWGQGTQVTVSS | high polyreactivity
27 | QVQLVESGGGLVQAGGSLRLSCAASGLTFVDYAMGWYRPAPGKERELVAGISYSGGSTYYADSVKGRFTISRDNAKNTVYLQMNSLKPEDTAVYYCAAKYRRPRYGYWGQGTQVTVSS | high polyreactivity
28 | QVQLVESGGGLVQAGGSLRLSCAASGRIFPGYAMGWYRQAPGKERELVAGITWRTARTYYADSVKGRFTISRDNAKNTVYLQMNSLKPEDTAVYYCAAKYARYGRHVIFDYWGQGTQVTVSS | high polyreactivity
29 | QVQLVESGVGLVQAGGSLRLSCAASGSNFNTYTMGRYRQAPGKERELVAAITWSGGRTYYADSVKGRFTISRDNAKNTVYLQMNSLKPEDTAGYYCAADWGEDYTRDDYWGQGTQVTVSS | low polyreactivity
30 | QVQLVESGGGLVQAGGSLRLSCAASGFIFLNNTLGWYRQAPGKERELVAAISWSGGSTYYADSVKGRFTISRDNAKYSVYLQMNSLKPEDTAVYYCAADVKHTTEYDYWGKGTQVTVSS | high polyreactivity
31 | QVQLVESGVGLVQAGGSLRLSCGASGSIFVANVMGWYRQAPGKEREFVATISWNGGNTYYADSVKGRFTISRDNAKNTVYLQMNSLKPEDTAVYYCAAEPLTPSRDRVPYEYYYWGQGTQVTVSS | high polyreactivity
32 | QVQLVESGGGLVQAGGSLRLSCAASGSTFIYNALGWYRQAPGKERELVAAISSGGSTYYADSVKGRFTISRDNAKNSVYLQMNSLKPEDTAVYYCAAKGFPRSGYPYQAQHMYYWGQGTQVTVSS | low polyreactivity
33 | QVQLVESGGGLVQAGGSLRLSCAASGYIFQRYTMGWYRQAPGKERELVAAITRSGGRTYYADSVKGRFTISRDNAKNTVYLQMNSLKPEDTAVYYCAVDYRTRGDYWGQGTQVTVSS | high polyreactivity
34 | QVQLVESGGGLVQARGSLRLSSAASRSTFNVYAMGWYRQAPGKERELVAGIRDSDGSTNYADSVKGRFTISRDNAKNTVYLQMNSLKPEDTAVYYCAADLYDINWSVWLDYWGQGTQVTVSS | low polyreactivity
35 | QVQLVESGGGLVQAGGSLRLSCAASGFTFSRNAMGWYRQAPGKERELVAAIDSGGSTDYADSVKGRFTISRANAKKTVYLQMNSLKPEDTAVYYCAKASSATRYVQLRQDYDYWGQGTQVTVSS | low polyreactivity
36 | QVQLVETGGGLVQAGGSLRLSCAASGRTFGPYVMGWYRQAPGKERELVAGITSGGSTNYADSVKGRFTISRDNAKNTVYLQMNSLKPEDTAVYYCNADYVIYFGLYEYWGQGTQVTVSS | low polyreactivity
37 | QVQLVESGGGLVQAGGRLRLSCAASGLIFPAYAMGWYRQAPGKERELVATITWRGGSTYYADSVKGRFTISRDNAKNTVYLQMNSLKPEDTAVDYCATRPRYYYFRYDYWGQGTQVTVSS | high polyreactivity
38 | QVQLVESGGGLVQAGGSLRLSCAASGSTFISYAMGWYRQAPGKERELVAAISSGGGRTSYADSVKGRFTISRDNAKNTVYLQMNSLKPEDTAVYYCNTKKLPYAEGYWGQGTQVTVSS | low polyreactivity
39 | QVQLVVSGGGLVQAGGSLRLSCAASGLTFWKYTLGWYRQAPGKEREWVAAMSISGTNTYYADSVKGRFTISRDNAKNTVYLQMNSLKPEDTAVYYCAAVRGYPPTNYYYCGQGTQVTVSS | high polyreactivity
40 | QVQLVESGGGLVQAGGSLRLSCAASGYTFARNAMGWYIQAPGKERELVAAISSSGGRTYYADSVKGRFTISRDNAKNTVYLQMNSLKPEDTAVYYCNTGYYRTGSYDYWGQGTQVTVSS | high polyreactivity
41 | QVQLVESGGGIVQARGSLRLSCAASGSILSSYAMGWYTQAPGKERELVAAISKSGTRTYYADSVKGRFTISRDNAKNTVYLQMNSLKPEDTAVYYCAARYYSRTTAMDYWGQGTQVTVSS | high polyreactivity
42 | QVQLVESGGGLDQAGGSLRLSCAASGSTFRSNAMGWYRQAPGKERELVAGITSGTSTNYADSVKGRFTISRDNAKNTVYLQMNSLKPEDTAVYYCNTDRIWYGPEYDYWGQGTQVTVSS | low polyreactivity
43 | QVQLVESGGGLVQAGGSLRLSCAASGRTFKSYSMGWYRQAPGKERELVAAISWSGGSTYYADSVKGRFTISRDNAKNTVYLQMNSLKPEDTAVYYCAKRGYASGSKWDYGYWGQGTQVTVSS | high polyreactivity
